Results from patent US20180362625A1 (COMMONWEALTH SCIENTIFIC AND INDUSTRIAL RESEARCH ORGANISATION, published 2018).

Molecular target: T1, interferon response factor 3 (IRF3), endogenous in HeLa cells (human, UniProt Q14653 1-427)
T1 construct: Phosphorylation state after poly(I:C) was not defined for the immunoprecipitated material
T1 sequence (looked up): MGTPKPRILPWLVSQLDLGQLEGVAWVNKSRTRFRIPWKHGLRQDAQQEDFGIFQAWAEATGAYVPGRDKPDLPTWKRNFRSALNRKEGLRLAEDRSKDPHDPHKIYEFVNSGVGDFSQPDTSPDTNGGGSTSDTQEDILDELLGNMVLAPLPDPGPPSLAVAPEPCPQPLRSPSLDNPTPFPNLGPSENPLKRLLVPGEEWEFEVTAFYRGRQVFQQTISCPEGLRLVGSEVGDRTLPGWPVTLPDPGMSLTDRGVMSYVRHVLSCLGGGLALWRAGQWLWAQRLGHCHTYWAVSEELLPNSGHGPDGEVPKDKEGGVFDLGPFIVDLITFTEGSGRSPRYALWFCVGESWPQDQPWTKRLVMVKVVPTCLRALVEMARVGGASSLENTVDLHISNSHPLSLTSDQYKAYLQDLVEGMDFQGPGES
Assay: co-immunoprecipitation from HeLa lysates with immobilised anti-IRF3 antibody, western blot, -/+ poly(I:C)
Description: Immunoprecipitation and cell fractionation: For immunoprecipitation, 25 μg of antibody was coupled to 50 μg of agarose beads using the Pierce direct immunoprecipitation kit as specified by the manufacturers (Life Technologies). Cells were lysed in NP-40 lysis buffer provided and pre-cleared with a non-specific isotype agarose control at 4° C. for 1 hour, then incubated with ˜1.5 μg agarose-coupled antibody at 4° C. overnight. Resin was washed multiple times then elution performed using non-reducing sample buffer (containing 2% w/v SDS) at 100° C. for 10 mins. Cytosolic and nuclear fractions were prepared from cells using the Pierce NE-PER cell fractionation kit (Life Technologies) as specified by the manufacturers, and total protein quantitated by BCA assay (Life Technologies) before western blot analyses.
To access whether C6orf106 binds IRF3, C6orf106-flag was co-expressed with GFP −/+ poly(I:C) as described above, then performed a direct co-immunoprecipitation with immobilised IRF3 antibodies. As shown in FIG. 10A C6orf106 could be detected in IRF3-immunoprecipitated lysates, and this was increased approximately four-fold in the presence of poly(I:C). […] Cells were lysed and subjected to […] immunoprecipitation with an anti-IRF3 antibody. IP samples and input controls were probed with anti-FLAG antibody for western blotting. […]

B1: Flag-tagged C6orf106 (C6orf106-FLAG, expressed from pCAGGs-C6-FLAG) (other)
chain: MEGMDVDLDPELMQKFSCLGTTDKDVLISEFQRLLGFQLNPAGCAFFLDMTNWNLQAAIGAYYDFESPNISVPSMSFVEDVTIGEGESIPPDTQFVKTWRIQNSGAEAWPPGVCLKYVGGDQFGHVNMVMVRSLEPQEIADVSVQMCSPSRAGMYQGQWRMCTATGLYYGDVIWVILSVEVGGLLGVTQQLSSFETEFNTQPHRKVEGNFNPFASPQKNRQSDENNLKDPGGSEFDSISKNTWAPAPDTWAPAPDQTEQDQNRLSQNSVNLSPSSHANNLSVVTYSKGLHGPYPFGQSGDYKDDDDK
notes: Over-expressed in HeLa or HEK293T cells and tested in cell lysates by co-immunoprecipitation
fold increase of C6orf106 co-immunoprecipitated with IRF3 in the presence of poly(I:C) versus without: ~4 fold
